Assay results: the nanobody polyreactivity screen of Harvey et al. (2022)

Assay: yeast display, Sf9 membrane polyspecificity reagent, FACS + sequencing; frameworks hold sequencing errors
Method in brief: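 After 36–48 hours of galactose induction, yeast (Saccharomyces cerevisiae BJ5465) displaying a synthetic nanobody library were stained at 4 °C for 1 hour with 10% biotinylated, detergent-solubilized Sf9 membrane reagent. Streptavidin microbeads enriched the stained cells before FACS sorting into low and high (top ~1%) gates on anti-HA and streptavidin fluorescence. Each clone's polyreactivity label reflects its gate of origin.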

Sequence	polyreactivity (PSR sort gate)
QVQLVESGGGLVQAGCSLRLSCAASGRIFDYYAMGWNRQAPGKERELVAAISYSGGSTHYADSVKGRFTISRDNAKNSVYLQMISLKPEDTAVYYCAGWAWSGVEYDYWGQGSQVTVSS	low polyreactivity
QVQLVESGGGLFQAGGSLRLICAASGRIFDVNAMGWYRQAPRKEREMVAAISWSGGITYYADSVKGRFTISRDNAKNTVYLQMNSLKPEDTAVYYCAADKYQGYTFYQGYPGGGGYWGQGTQVTVSS	low polyreactivity
QVQLVESGGGLVQAGGSHRLSCAASGIIIEGNVMGWSRQSPGKQSELVAAITSDTSTNYGDSVKGRFTISRDNATNTVYLQMNSLKPEDTGVYYCNAVIGTDYFYSGTAEFYYWGQGTQVTVSS	low polyreactivity
QVQLVESGGGLVQAGGSLRLSCAASGRTFDDYAMGWYIQAPGKERELVAGIRWSVGNTDYADSVKGRFTISRDNAKNTVYLQMNSLKPEDTAVYYCNARPFLTVLYLFYGNNYDYWGQGTQVTVSS	low polyreactivity
QVQLVESGGGLVQAGGSLRLSCAAYGSIIGVNAMGWYRPAPGKERELVAAISSTGGSTYYADSVKGRFTISRDNAKNTVYLQMNSLKPEDTAVYYCNTDYSKSIGDGYAGFDYWGQGTQVTVSS	low polyreactivity
QVQLVESGGGLVQAGGSLRLSCAASGRIFRSYAMGWYRQAPGKERELVAAISQRGGRTYYADSVKGRFTISRDNAKNTVYLQMNSLKPEDTAVYYCAKSNPKLGYYYLQGDLYDYWGQGTQVTVSS	low polyreactivity
QEQLVESGRGLVQAGGSLRVSCAASGSIFSVNGMGWYRQAPGKARELVAAIRRSGGSTYYADSVKGRFTISRDHAKNTVNLQRNSLKPEDTAVYYCAAPVRQSSYTRYDAWGQGTQVTVSS	high polyreactivity
QVQLEESGGGLVQAGGSLRLSCASSGSTFPYNAMGWYRQAPGKERELVAANTSGASTNYADSVKGRFTISRENAKNTVYLQMNRLKPEDTAVYYCAAQSFGKRIWSPRYQLNYWGQGTQVTVSS	low polyreactivity
QVQLVESGGGLVQAGGSLRLSCAASGSTFLYYAKGWSRQAPGKERELVAAISGSGGSTYYADSVKGRFTISRDNAKNTVYLQMNSLKPEDTAVYYCNAVARRHGLGPYDYWGQGTQVTVSS	high polyreactivity
QVQLVESGGGIVQAGGSLRLSCAASGSTFRGYAMGWYRQAPGKERELVAAITYISDSTYYADSVKGRFTISRDNAKNTVYLQMNCLKPVDTAVYYCNAYYDGDWRYTSQETGDHWGQGTQVTVSS	low polyreactivity
QVQLVESGGGLVQAGGSLRLSCAASGRIFSAYAMGWYRQAPGKERELVAAITLSDGSTYYADSVKGRFTISRDNAKNTVYLQMNSLKPEDTAVYYCNADWYAYPYGYWGQGTQVTVSS	low polyreactivity
QVQLVESGGGLVQAGGSLSLSCAASGRIFVSYAMGWYRQAPGKERELVAAISYSGGSTYYADSVKGRFTISRDNAKNTVYLQMNSLKPEDTAVYYCAKDGGVYAPAGDDDYWGQGTQVTVSS	low polyreactivity
QVQLVESAGGLVQAGGSLRLSCAASGITFAWYAMGWYRQAPGKERELVAAITRGGGSTYYADSVKGRFTISRDNAKNTVYLQMNSLKPEATAVYYCAARPYSYPYGYWGQGTQVTVSS	low polyreactivity
QVQLVESGGGLVQAGGSLRLCCAASGLTFYPNAMGWYRQAPGKEREFVASISISGRTYYADSVKGRFTISRDNAKNTVYLQMNSLKPEDTAVYYCAARYVRSGLYRKYDYWGQGTQVTVSS	high polyreactivity
QVQLVESGGGLVQAGGSLRLSCAASGSNFRTYPIGWYRQAPGKERELVAAISSNGGSTYYADSVKGRFTISRDNAKNTVYLQMNSLKPEDTAVYYCANDQTGYWYNRYGYWGQGTQVTVSS	low polyreactivity
QVQLVESGGGLVQAGGSLRLSCAASGFTFRGNVMGWYRQAPGKERELVAGISSTGSTYYADSVKGRFTISRDNAKNTVYLQMYSVKPVDTAVYYCAAAAIYFRYDYWGQGTQVTVSS	high polyreactivity
QVQLVESGGGLVQAGGSLRLSCAASGSIFGPYAMGWYRQAPGKERELVATINRGVTTYYADSVKGRFTISRDNAKNTVYLQMNSLKPEDTAVYYCAARTYAKRPGYYWGQGTQVTVSS	high polyreactivity
QVQLVESGGGLVQAGGSLRLSCAASGRTFYRNPMGWYRQAPGKEWELVAGITRCGRTYYADSVKGRFRISRDNAKNTVYLQMNCLKPEDTAVYYCNKTGGNGNDYWGQGTQVTVSS	low polyreactivity
QVQLVESGGGLVQAGGSLRLSCAASGFSFKYYAMGWYRQAPGKERELVATIRRGGSTYADSVKGRFTISRDNAKNSVYLQMNSLKPDDTAVYYCATRISSSTVPLYYFSGYNYWGQGTQVTVSS	high polyreactivity
QVQLVESGGGLVQAGGSLRLSCAASGFSFARNAMGWYRQAPGKERELVAAISDSGGRTYYADSVKGRFTISRDIAKNTVYLQMNSLKPEDTAVYYCAAALTFRMDYWGQGTQVTVSS	high polyreactivity
QVQLVESGGGLVQAGGSLRLSCAASGSIFDYYAMGWYRQAPGKERELVAAIDSGDITYYADSVKGRFTISRDNAKNTFYLQMNRLKPEDTAVYYCAAEGTGYSVGWQYGYWGQGTQVSVSS	low polyreactivity
QVQLVESGGGLVQAGGSLRLSCAASGSTLVYNDMGWYRQAPGKEREFVAAIRSNDGSTYYADSVKGRFTISRDNAKNTVYLQMNSLKPEDTAVYYCATTQAYRGENYNYWGQGTQVTVSS	low polyreactivity

Sequence	polyreactivity (PSR sort gate)
QVQLVESGGGLVQAGGSLRLSCAASGFTFAGYAMGWYRQAPGKDRELVAAISWSGGRTYYADSVKGRFTISRDNAKNTVYLQMNSLKPEDTAVYYCAKLTLSSRWYYIYDYWGQGTQVTVSS	high polyreactivity
QVQIVESGGGLVQAGGSLRLSCASSGIIFWPNAMGWYRQAPGKERELVASITSGGYTYYADYVKGRFTISRDNAKNTVYLQMNSLKPEDTAVYYCAAEWYPYGPKRYYWGQGTQVTVSS	low polyreactivity
QVQLVESGGGLVQAGGSLRLSCAASGSIFERYSMGWYRQATGKERELFATISKSGDSKYYADSVKGRFTISRDNAKNTVYFQMNRLKPEDTAVYYCSADGWYETSDATFYYWGQGTQVNVSS	low polyreactivity
QVQLVESGGGLVQAGGSLRLSCAASGRIFFYAMGWYRQAPGKERELVASITTSGTSTYYADSVKGRFTISRDNAKNTVYLQMNSLKPEDTAVYYCNARVRYTVGPLSSLDGEYWGQGTQVTVSS	low polyreactivity
QVQLVESCGGLVQAGGSLRLSCAASGLTFLAYDMGWYRQAPGKEREFVAAITGGGSTHYADSVKGRFTISRDNAKTTVYLQMNSLKTEDTAVYYCNADVYVYSVTSHYPSYRLDYWGQGTQVTVSS	high polyreactivity
QVQLVESGGGLVQAGGSLRLSCAASGSTFRYNALGWYRQAPGKERELVAAINYRGGSTYYADSVKGRFTISRDNAKNTVYLQMNSLKPEDTAVYYCNAVLPLAKYEYDSWGHGTQVTVSS	high polyreactivity
QVQLVESGGGLVQAGGSLRLSCAASGRTFLYNAMGWYSQATWKERELVASITRRGGTTYYADSVKGRFTISRDNAKNTVYLQMNSLKPEDTAVYYCNAQPGISYYYYGHWYGYWGQGTQVTVSS	high polyreactivity
QVQLVESGGGLVQAGGSLRLSCAASGYIFPGNAMGWYRQAPGKERELVATITDDTSTNYADSVKGRFTISRDNAKNTVYLQMNSLKPEDTAVYYCAADLYYWYPYLYDYWGQGTQVTVSS	low polyreactivity
QVQLVESGGGLVQAGGSLRLSCAASGFTFNYYAMGWYRQAPGKERELVAAISRSGGSTSYADSVKGRFTISRDNAKNTVYLQMNSLKPEDTAVYYCNAVRAIYRYDYWGQGTQVTVSS	high polyreactivity
QVQRVESGGGLVQAGGSLRLTCAASGITFFVYAMGCYRQAPGKERELVATINWSGASTYYADSVKGRFTISRDNAKNSVYLQMNSLKPEDTAVYYCAKDGHYPLVYLAFDYWGQGTQVTVSS	low polyreactivity
QVQLVESGGGLVQAGGSLRLSCAASGYIFVHYVMGWYRQAPGKERELVAAISSSGDRTYYADSVKGRFTISRDNAKNTVYLQMNSMKPEDTAVYYCAARYSDTSTNRYYYWGQGTQVTVSS	high polyreactivity
QVQLVESGVGLVQAGGSLRLSCAASGLIFQGYAMGWYTQAPGKERELVAAITLSGGSTYYADSVKGRFTISRDNAKITDYLLMNSLKPEDTAVYYCNAYYPDEPSLYDYWGQGTQVTVSS	low polyreactivity
QVQLVESGGGLVQAGGSLRISCAASGFTFFSNAMGWYRKAPGKERELVAAITSSGGSTYADTVKGRFTISRDNAKNTVYLQMNRLKPEDTAVYYCAADAQAPPGGFKEYDYWGQGTQVTVSS	low polyreactivity
QVQLQVSGGHLVQAGGSLRLSCAASGTIYGLTSMGWYSQAPGKEREFVAAITDGGNTNYADSVKGRFTISRDNAKNTVYLQMISLKPEDTSVYYCAFLFSDDAYFAYWGQGTQVTLSS	low polyreactivity
QVQLVESGGGLVQAGGSLRLSCAASGRIFKDTAMGWYRQAPGKDRELVAGITSIGDNTYYADSVKGRFTISRDNAKNTVYLQMHSLKPEDSAVYDCNALYPYVNGTVPRTTGEYDYWGQGTQVTVSS	low polyreactivity
QVQLVESGGGLVQAGGSLRLSCAASGNIFVAYAMGWYRQAPGKERELVAVISNGGRTYYADSVKGRFTISRDKAKNNVYLQMNSLKPADTAVSYCATVAHASYGWHNYWGQGTQVTVSS	high polyreactivity
QVHLVESGGGLVQAGGSLRLSCAASGSICGHYAMGWYRQAPGKERELVANITLSDGRTYYADSVKGRFTISLDNAKNTVYFQMNSLKPEDTAVYYCAARYYSFSSPFDYWGQGNQVTVSS	high polyreactivity
QVQLVESGGGLVQAGGSLRLSCAASGSTFRYYAMGWYRQAPGKEWELVAVISTSGNTYYADSVKGRFTISRDNAKNTVYLQMNSLKPEDTAVYYCAARGVGGQISQEYDYWGQGTQVTVSS	low polyreactivity
QDQLVESGGGLVQAGGRLRLSCAASGSIFNYYTMGWYRQAPGKETELVAAITWSGGRTYYADSVKGRFTISRDNAKNTVYLQMNSLKPEDTAVYYCNAVAYKPGGGEDFESWGQGTQVTVSS	high polyreactivity
QVQLVESGGGLVQAGGSLRLSCAASGSTFLTNAMGWYRQAPGKERELVAAITWSGTSTYADSVKGRFTISRDNAKNTVYLQMNSLKPDDTAVYYCAAPILSFPSPYVQYDYWGQGTQVTVSS	low polyreactivity
QVQLVESGGGLVQAGGSLRLTCAASGSTDPYAMGWYRQAPGKERELVARIRYSGGSTYYADSVKGRCTISRDNAKNTVYFQMTSLKPEDTAVYYCAAQSYTYYHHYGYWGQGTQVTVSS	high polyreactivity
